In patent US8431396B2, “Anti-angiogenic peptides” (The Cleveland Clinic Foundation, priority 2003, dated 2013):

Columns and labels:
[1] = tested on: PAE-PDGFR-β cells; experiment: Endothelial cell proliferation in response to PDGF-BB; type: cell-based, porcine; conditions: recombinant TIMP3 (1 and 5 μg/ml) or overexpression
[2] = tested on: MDA-MB435 human breast carcinoma cells; experiment: Tumors from mice injected with MDA-MB435 cells transfected with TIMP3, von Willebrand factor staining; type: in vivo; conditions: von Willebrand factor immunostaining; TIMP3-transfected tumor cells
Text: Brown reaction product depicts endothelial cells lining the vessels.

[3] = molecular target: T1, VEGF (Homo sapiens, UniProt P15692); experiment: Solid-phase direct binding of [125I]VEGF to wells coated with TIMPs
T1 construct: purchased Genentech (gift, not bought)
T1 sequence (P15692 27-191 isoform P15692-4): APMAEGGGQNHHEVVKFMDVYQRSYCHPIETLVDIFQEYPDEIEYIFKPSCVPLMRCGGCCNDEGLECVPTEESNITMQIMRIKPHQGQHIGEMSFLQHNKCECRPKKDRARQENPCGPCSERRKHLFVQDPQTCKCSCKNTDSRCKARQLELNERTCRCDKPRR

[4] = tested on: PAE-KDR cells; experiment: Endothelial cell proliferation in response to VEGF165 and VEGF121; type: cell-based, porcine
Protocol: (A) Proliferative response of PAE-KDR cells to VEGF165 (5 ng/ml; left) and VEGF121 (30 ng/ml; right). […] (C) DNA synthesis of endothelial cells in response to VEGF165. […] [3H]thymidine incorporation was measured during the last 5 h of incubation. (D) Analysis of endothelial cell expressing TIMP3. […] Expression of TIMP3 protein was determined by immunoblotting with antibody against TIMP3 (top left). MMP-inhibitory activity was determined by reverse zymography (top right). Corresponding densito-metric quantitation is expressed as arbitrary optical density (OD) units±s.d. (C) DNA synthesis in adenovirus-infected cells in response to VEGF. […] In all proliferation experiments, total number of cells was counted at 48 h. Proliferating cell number is expressed as means±s.e.m. of quadruplicate samples. DNA synthesis data represent the means±s.e.m. of triplicate samples; similar results were obtained in at least 2 different experiments. *, P<0.01.
(§1) A modified Boyden chamber assay for migration and proliferation assays were carried out as described.

[5] = tested on: PAEKDR cells; experiment: Tube formation assay in type 1 collagen gels; type: cell-based, porcine; conditions: 50 ng/ml VEGF; three-dimensional collagen gels
Protocol: Type 1 collagen was mixed with 10×DMEM and 0.1 M NaOH (8:1:1), adjusted to a solution containing 10 μg/ml growth factor reduced matrigel matrix (BD, Biosciences), and then distributed in 48-well dishes. […] After 4 h of incubation at 37° C., a second layer of collagen was added, and cultures were kept under the same conditions as above described. Tube formation was examined using a phase-contrast microscopy at the indicated time points.

[6] = molecular target: T2, KDR (Homo sapiens, UniProt P35968); experiment: VEGF-stimulated KDR tyrosine phosphorylation in membrane fractions (Western blot); type: cell-based; conditions: WT-TIMP3 cells; data not shown
T2 construct: To determine whether these receptor isoforms represent full-length VEGFR-2; expressed in transfected cells; host or cells: porcine aortic endothelial (PAE) cells
T2 sequence (P35968 20-1356): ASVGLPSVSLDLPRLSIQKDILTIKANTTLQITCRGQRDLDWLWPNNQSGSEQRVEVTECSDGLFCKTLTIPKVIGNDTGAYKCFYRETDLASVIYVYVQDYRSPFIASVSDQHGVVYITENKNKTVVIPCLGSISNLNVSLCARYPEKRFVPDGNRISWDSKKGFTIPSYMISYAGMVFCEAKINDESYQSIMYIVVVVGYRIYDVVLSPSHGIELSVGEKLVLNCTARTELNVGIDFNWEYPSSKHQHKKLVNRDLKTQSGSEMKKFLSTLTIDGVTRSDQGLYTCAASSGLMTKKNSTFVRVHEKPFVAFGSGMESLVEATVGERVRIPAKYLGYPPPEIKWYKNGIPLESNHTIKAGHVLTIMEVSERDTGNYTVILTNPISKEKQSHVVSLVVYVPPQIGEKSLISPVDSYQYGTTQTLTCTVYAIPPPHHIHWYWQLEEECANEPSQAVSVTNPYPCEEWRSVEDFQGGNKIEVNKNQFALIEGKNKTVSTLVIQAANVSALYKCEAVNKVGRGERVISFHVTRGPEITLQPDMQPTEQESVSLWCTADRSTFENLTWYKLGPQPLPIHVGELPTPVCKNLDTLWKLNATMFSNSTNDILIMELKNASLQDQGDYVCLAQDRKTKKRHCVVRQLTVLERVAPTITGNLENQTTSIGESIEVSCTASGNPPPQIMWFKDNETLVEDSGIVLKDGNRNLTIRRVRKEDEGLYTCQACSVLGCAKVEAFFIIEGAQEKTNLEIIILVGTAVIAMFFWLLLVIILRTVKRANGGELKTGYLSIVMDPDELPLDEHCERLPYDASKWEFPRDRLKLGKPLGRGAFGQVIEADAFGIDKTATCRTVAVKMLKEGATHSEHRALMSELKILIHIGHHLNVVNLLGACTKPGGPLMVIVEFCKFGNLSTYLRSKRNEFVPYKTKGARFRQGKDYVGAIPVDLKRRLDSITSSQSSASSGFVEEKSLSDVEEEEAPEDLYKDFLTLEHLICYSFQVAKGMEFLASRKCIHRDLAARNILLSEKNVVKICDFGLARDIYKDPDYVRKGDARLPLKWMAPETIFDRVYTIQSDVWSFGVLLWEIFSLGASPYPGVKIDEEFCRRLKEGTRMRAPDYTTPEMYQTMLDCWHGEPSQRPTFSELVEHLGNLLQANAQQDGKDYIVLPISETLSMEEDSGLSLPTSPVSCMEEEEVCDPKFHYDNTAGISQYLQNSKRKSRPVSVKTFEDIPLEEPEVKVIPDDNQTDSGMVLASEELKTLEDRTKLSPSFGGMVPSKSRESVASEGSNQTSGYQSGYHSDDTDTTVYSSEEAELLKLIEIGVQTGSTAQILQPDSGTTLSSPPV
Protocol: 2 day serum free conditioned medium (CM) was collected from subconfluent cells cultured on six-well plates (Costar). In some cases the CM was further concentrated with heparin-agarose gels (Bio-rad). The cell monolayer was dislodged from the culture plates following a 10 min incubation in Ca2+, Mg2+ free phosphate buffered saline (PBS) containing 2.5 mM EDTA. After several rinses in PBS and water, the ECM was scraped in a small volume of electrophoresis sample buffer without reducing agent for analyses. Plasma membrane (PM) fractions were prepared from cells centrifuged at 500 g and 4° C. for 5 min The supernatant was discarded and the cell pellets were resuspended in PBS containing protease inhibitors, lysed with a 26-gauge syringe needle, and centrifuged at 3,000 g at 4° C. for 15 minutes. The supernatant was centrifuged at […] at 4° C. for 1 hr. The PM pellets were suspended in lysis buffer containing protease inhibitors. In some instances the membrane fraction of cells was prepared using ProteoExtract Subcellular Proteome Extaction Kit (EMD Biosciences, Inc).
Cell fractions or immunoprecipitates of the lysates with the indicated antibodies were subjected to SDS-PAGE. Proteins were detected with either a HRP-conjugated anti-rabbit or anti mouse IgG antibody (Amersham Pharmacia Biotech., Piscataway, N.J.) followed by ECL. […]

[7] = tested on: MS1 mouse endothelial cells; experiment: MS1 endothelial cells infected with adenovirus expressing WT-TIMP3 or TIMP3Cys1-Ser: apoptosis and [3H]thymidine incorporation; type: cell-based; conditions: MS1 cells infected with wild-type or mutant virus
Protocol: MS1 mouse endothelial cells\(American Type Culture Collection, Manassas, Va.) were cultured until 80% confluent and infected with adenovirus as described. Cells were infected at 50 or 200 plaque-forming units per cell for 18 h. Medium was then replaced with fresh complete medium and left for 48 h until analysis.
as §1

[8] = tested on: PAEKDR cells; experiment: VEGF-stimulated actin reorganization / membrane ruffles; type: cell-based, porcine; conditions: 50 ng/ml VEGF for 15 min
Protocol: For immunostaining, subconfluent cells cultured on Falcon cultureslides (BD, Biosciences) were used. For surface KDR detection, cells were fixed in 1% paraformaldehyde for 10 min at 4° C. Following blocking with 1% BSA cells were incubated with anti-extracellular VEGFR-2 monoclonal antibody for 1 h at room temperature. Surface KDR was detected with biotinylated anti-mouse […] (1:1000) and Texas Red avidin D (1:1500) using standard procedures. […] The cells were fixed with 3.7% paraformaldehyde in PBS for 30 min at 4° C. and permeabilized with 0.2 Triton X-100 for 20 min at room temperature. Following rinsing with PBS the cells were incubated with fluorescein isothiocyanate (FITC)-labeled phalloidin in PBS (0.66 μg/ml, Sigma) for 20 min at room temperature washed with PBS and analyzed by fluorescence microscopy.

[9] = molecular target: T3, VEGFR-2 (KDR) (Homo sapiens, UniProt P35968); experiment: [125I]VEGF binding in transfected PAEKDR cell lines; conditions: PAEKDR cells expressing WT-TIMP3
T3 construct: To determine whether these receptor isoforms represent full-length VEGFR-2; expressed in transfected cells; host or cells: porcine aortic endothelial (PAE) cells
T3 sequence (P35968 20-1356): as above
Protocol: PAEKDR cells were transfected with TIMP3 cDNA or empty vector using Lipofectamine reagent (Gibco-BRL Rockville, Md.). Stable clones were isolated using Hygromycin selection.
After washing, the cell monolayers were solubilized with lysis buffer (20 mM Tris HCl pH 7.5, 1% triton X 100 and 10% glycerol), and the radioactivity measured in a gamma counter.

[10] = tested on: endothelial cells; experiment: Competitive displacement of [125I]TIMP3 from the surface of endothelial cells; type: binding; conditions: unlabeled VEGF 2 μg/ml, TIMP3 10 μg/ml
Protocol: Immunoprecipitation of cell lysates with antibodies specific for TIMP3 was followed by immunoblotting with antibodies specific for KDR (top). As a control for KDR receptor, cell lysates were immunoprecipitated with anti-bodies specific for KDR and probed with antibodies specific for KDR Immunoprecipitation with antibodies specific for KDR and immunoblotting with antibodies specific for TIMP3 (bottom) were carried out on PAE-KDR cells exposed to recombinant TIMP3 or PAE-KDR-vector and PAE-KDR cells overexpressing TIMP3, to confirm the interaction. […] Competition with unlabeled TIMP3 was carried out to ensure specificity. […] (E) In vivo interaction of KDR and TIMP3 in human placenta. Immunoprecipitation using antibodies specific TIMP3 (top) and KDR (bottom) was followed by immunoblotting with antibodies specific for KDR (top) and TIMP3 (bottom).

B1: TIMP3: tissue inhibitor of metalloproteinases-3; recombinant human form expressed in NSO myeloma cells, or wild-type expressed in transfected cells (protein, listed as Homo sapiens)
chain: MTPWLGLIVLLGSWSLGDWGAEACTCSPSHPQDAFCNSDIVIRAKVVGKKLVKEGPFGTLVYTIKQMKMYRGFTKMPHVQYIHTEASESLCGLKLEVNKYQYLLTGRVYDGKMYTGLCNFVERWDQLTLSQRKGLNYRYHLGCNCKIKSCYYLPCFVTSKNECLWTDMLSNFGYPGYQSKHYACIRQKGGYCSWYRGWAPPDKSIINATDP
[1]
  effect on proliferative response to PDGF-BB: Neither recombinant TIMP3 nor TIMP3 overexpression affected the proliferative response
[2]
  neovascularization of tumors expressing TIMP3 vs control tumors: decrease in neovascularization
[3]
  direct binding of [125I]VEGF to coated TIMP: did not detect direct binding
[4]; added exogenously at 0.3-1 μg/ml
  inhibition of proliferative response to VEGF165 and VEGF121: inhibited the proliferative response
[4]; over-expression of TIMP3 in endothelial cells
  proliferative response to VEGF165 and VEGF121: attenuation of the proliferative response
[4]; summary over CAM, proliferation and migration assays
  dose required to block the biological responses of in vivo angiogenesis, endothelial cell proliferation and migration: 0.3-3 μg/ml
[5]
  VEGF-stimulated tube formation: severely compromised
[6]
  receptor autophosphorylation after VEGF stimulation: no receptor autophosphorylation was seen
[7]
  apoptosis after adenovirus infection: No apoptosis was observed
[8]
  VEGF-stimulated formation of membrane ruffles: did not form membrane ruffles
[9]
  effect on binding of [125I] VEGF to KDR: dramatically inhibited the binding
[10]
  inhibition of binding of labeled TIMP3 to the surface of endothelial cells: could inhibit the binding of labeled TIMP3
